We go through two variants from IntAct's records for PubMed 21703451.

The chains are these.
B1: Transient receptor potential protein (Drosophila melanogaster (Fruit fly)), P19334 (parent)
chain: MGSNTESDAEKALGSRLDYDLMMAEEYILSDVEKNFILSCERGDLPGVKKILEEYQGTDKFNINCTDPMNRSALISAIENENFDLMVILLEHNIEVGDALLHAISEEYVEAVEELLQWEETNHKEGQPYSWEAVDRSKSTFTVDITPLILAAHRNNYEILKILLDRGATLPMPHDVKCGCDECVTSQMTDSLRHSQSRINAYRALSASSLIALSSRDPVLTAFQLSWELKRLQAMESEFRAEYTEMRQMVQDFGTSLLDHARTSMELEVMLNFNHEPSHDIWCLGQRQTLERLKLAIRYKQKTFVAHPNVQQLLAAIWYDGLPGFRRKQASQQLMDVVKLGCSFPIYSLKYILAPDSEGAKFMRKPFVKFITHSCSYMFFLMLLGAASLRVVQITFELLAFPWMLTMLEDWRKHERGSLPGPIELAIITYIMALIFEELKSLYSDGLFEYIMDLWNIVDYISNMFYVTWILCRATAWVIVHRDLWFRGIDPYFPREHWHPFDPMLLSEGAFAAGMVFSYLKLVHIFSINPHLGPLQVSLGRMIIDIIKFFFIYTLVLFAFGCGLNQLLWYYAELEKNKCYHLHPDVADFDDQEKACTIWRRFSNLFETSQSLFWASFGLVDLVSFDLAGIKSFTRFWALLMFGSYSVINIIVLLNMLIAMMSNSYQIISERADTEWKFARSQLWMSYFEDGGTIPPPFNLCPNMKMLRKTLGRKRPSRTKSFMRKSMERAQTLHDKVMKLLVRRYITAEQRRRDDYGITEDDIIEVRQDISSLRFELLEIFTNNNWDVPDIEKKSQGVARTTKGKVMERRILKDFQIGFVENLKQEMSESESGRDIFSSLAKVIGRKKTQKGDKDWNAIARKNTFASDPIGSKRSSMQRHSQRSLRRKIIEQANEGLQMNQTQLIEFNPNLGDVTRATRVAYVKFMRKKMAADEVSLADDEGAPNGEGEKKPLDASGSKKSITSGGTGGGASMLAAAALRASVKNVDEKSGADGKPGTMGKPTDDKKAGDDKDKQQPPKDSKPSAGGPKPGDQKPTPGAGAPKPQAAGTISKPGESQKKDAPAPPTKPGDTKPAAPKPGESAKPEAAAKKEESSKTEASKPAATNGAAKSAAPSAPSDAKPDSKLKPGAAGAPEATKATNGASKPDEKKSGPEEPKKAAGDSKPGDDAKDKDKKPGDDKDKKPGDDKDKKPADNNDKKPADDKDKKPGDDKDKKPGDDKDKKPSDDKDKKPADDKDKKPAAAPLKPAIKVGQSSAAAGGERGKSTVTGRMISGWL

The variants in the experiment derive from B1. Particulars: with inad_drome inaD.
Turning to V1266A, the “effect of a mutation on the interaction” value is listed as “decreasing interaction”.

As to V1266A;W1274A, the “effect of a mutation on the interaction” value is reported as “disrupting interaction”.
